Measured values as given in publication PMC4039371 (Molecular Systems Biology, 2013).

Biological target: T1, GST-Cdc14 (S. cerevisiae, UniProt Q00684 1-551)
T1 sequence (looked up): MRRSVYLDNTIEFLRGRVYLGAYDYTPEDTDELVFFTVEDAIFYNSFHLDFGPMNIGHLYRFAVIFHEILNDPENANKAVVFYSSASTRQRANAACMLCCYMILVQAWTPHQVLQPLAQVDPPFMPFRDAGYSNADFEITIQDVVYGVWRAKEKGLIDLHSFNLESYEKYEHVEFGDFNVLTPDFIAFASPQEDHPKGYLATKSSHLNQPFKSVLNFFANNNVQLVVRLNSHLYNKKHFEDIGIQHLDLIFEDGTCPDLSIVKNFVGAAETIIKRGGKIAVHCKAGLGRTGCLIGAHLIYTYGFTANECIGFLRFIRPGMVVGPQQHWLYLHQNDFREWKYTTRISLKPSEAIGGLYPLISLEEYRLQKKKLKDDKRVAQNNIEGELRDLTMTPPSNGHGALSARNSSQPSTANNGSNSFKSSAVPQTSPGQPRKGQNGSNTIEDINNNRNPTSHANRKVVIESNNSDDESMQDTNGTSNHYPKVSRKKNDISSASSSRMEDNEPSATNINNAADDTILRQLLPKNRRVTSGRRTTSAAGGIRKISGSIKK
Assay: pull-down

binding result: binds
B1: recombinant Ubc9 protein (enzyme, S. cerevisiae, UniProt P50623 1-157, looked up)
chain: MSSLCLQRLQEERKKWRKDHPFGFYAKPVKKADGSMDLQKWEAGIPGKEGTNWAGGVYPITVEYPNEYPSKPPKVKFPAGFYHPNVYPSGTICLSILNEDQDWRPAITLKQIVLGVQDLLDSPNPNSPAQEPAWRSFSRNKAEYDKKVLLQAKQYSK
